Experimental data: US20120195879A1
No end group written: not given here.

Tests used:
human Kv1.1 (human) = human Kv1.1 (human) (UniProt Q09470); assay: cell-based or functional assay
human Kv1.3 (human) = human Kv1.3 (human) (UniProt P22001); assay: cell-based or functional assay
DNP(31)-BSA (bovine) = DNP(31)-BSA (bovine) (UniProt P02769); assay: SPR (BIAcore 2000), antibody captured on anti-human IgG Fc surface, DNP-BSA injected; apparent constants
DNP(3)-BSA (bovine) = assay: as above
DNP(3)-BSA (bovine), sequence (P02769 25-607 limits assumed, form in doubt): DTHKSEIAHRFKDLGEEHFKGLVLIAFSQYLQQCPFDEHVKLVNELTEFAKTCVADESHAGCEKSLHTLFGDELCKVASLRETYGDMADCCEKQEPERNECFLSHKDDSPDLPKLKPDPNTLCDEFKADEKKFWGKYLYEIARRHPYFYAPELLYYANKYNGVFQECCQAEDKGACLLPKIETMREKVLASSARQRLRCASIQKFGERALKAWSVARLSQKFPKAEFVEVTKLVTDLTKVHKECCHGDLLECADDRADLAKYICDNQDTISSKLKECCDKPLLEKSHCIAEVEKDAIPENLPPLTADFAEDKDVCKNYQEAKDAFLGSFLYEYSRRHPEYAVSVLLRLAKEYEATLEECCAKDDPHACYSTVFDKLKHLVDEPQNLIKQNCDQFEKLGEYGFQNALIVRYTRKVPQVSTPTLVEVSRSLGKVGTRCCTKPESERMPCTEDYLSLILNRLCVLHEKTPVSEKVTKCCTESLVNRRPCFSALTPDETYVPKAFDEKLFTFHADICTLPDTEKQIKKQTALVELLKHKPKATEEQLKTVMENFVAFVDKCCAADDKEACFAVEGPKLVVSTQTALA

human Kv1.3 (human), sequence (P22001 whole entry): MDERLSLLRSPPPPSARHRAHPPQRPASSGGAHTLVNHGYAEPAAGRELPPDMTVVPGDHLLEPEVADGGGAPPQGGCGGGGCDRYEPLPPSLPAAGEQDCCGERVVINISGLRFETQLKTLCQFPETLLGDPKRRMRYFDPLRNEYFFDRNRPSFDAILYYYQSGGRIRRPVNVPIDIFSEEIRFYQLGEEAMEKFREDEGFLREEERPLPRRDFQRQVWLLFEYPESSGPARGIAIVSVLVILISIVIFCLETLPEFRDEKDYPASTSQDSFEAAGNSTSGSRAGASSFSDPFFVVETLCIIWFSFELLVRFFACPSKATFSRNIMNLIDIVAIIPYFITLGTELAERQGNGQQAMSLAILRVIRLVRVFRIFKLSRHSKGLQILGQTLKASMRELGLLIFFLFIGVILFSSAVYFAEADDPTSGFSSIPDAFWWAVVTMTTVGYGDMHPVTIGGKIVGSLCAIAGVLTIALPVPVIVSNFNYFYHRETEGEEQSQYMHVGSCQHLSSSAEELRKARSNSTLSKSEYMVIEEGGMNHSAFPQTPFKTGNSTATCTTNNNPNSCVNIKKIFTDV
DNP(31)-BSA (bovine), sequence (P02769 25-607 limits assumed, form in doubt): as the sequence (P02769 25-607 limits assumed, form in doubt) above
human Kv1.1 (human), sequence (Q09470 whole entry): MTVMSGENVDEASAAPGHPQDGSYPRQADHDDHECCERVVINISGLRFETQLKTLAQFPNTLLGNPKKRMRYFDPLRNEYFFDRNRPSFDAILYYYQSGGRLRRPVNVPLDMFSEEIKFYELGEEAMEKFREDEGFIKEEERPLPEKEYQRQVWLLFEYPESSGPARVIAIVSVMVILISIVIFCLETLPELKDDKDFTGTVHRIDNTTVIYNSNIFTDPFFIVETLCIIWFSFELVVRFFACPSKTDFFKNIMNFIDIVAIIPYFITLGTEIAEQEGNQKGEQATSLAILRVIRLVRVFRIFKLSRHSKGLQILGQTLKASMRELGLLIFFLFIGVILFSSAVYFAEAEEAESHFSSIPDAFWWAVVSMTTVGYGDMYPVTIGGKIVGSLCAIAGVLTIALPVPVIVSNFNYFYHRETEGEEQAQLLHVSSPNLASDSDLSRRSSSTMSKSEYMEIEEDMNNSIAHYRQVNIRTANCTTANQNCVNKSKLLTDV

Row | Binder | Kv1.1 (PX) IC50 (human Kv1.1 (human)) [pM] | Kv1.1/Kv1.3 Selectivity Ratio by PX (human Kv1.3 (human)) | Kv1.3 (PX) IC50 (human Kv1.3 (human)) [pM] | Potency Relative to ShK (WB, IL2) (human Kv1.3 (human)) | Kd (DNP(31)-BSA (bovine)) [pM] | koff (DNP(31)-BSA (bovine)) [s⁻¹] | kon (DNP(31)-BSA (bovine)) [M⁻¹ s⁻¹] | Kd (DNP(3)-BSA (bovine)) [pM] | koff (DNP(3)-BSA (bovine)) [s⁻¹] | kon (DNP(3)-BSA (bovine)) [M⁻¹ s⁻¹]
1 | Fc-GGGGSGGGGSSCIDTIPKSRCTAFQCKHSMKYRLSFCRKTCGTC (Fc fusion, ends and bridges not checked; also: homodimer via Fc) [Bivalent Fc-L10-ShK[2-35] homodimer] | 411 | 3.54 | 116 | 8.73 | – | – | – | – | – | –
2 | aDNP 3A1 antibody (hybridoma) (antibody, human IgG2, kappa, V domains shown) VH: QVQLQESGPGLVKPSETLSLTCTVSGGSISHYYWSWIRQPPGKGLGWIGYIYYSGSTNYNPSLKSRVTISVDTSKNQFSLKLTSVTAADTAVYYCARARGDGYNYPDAFDIWGQGTMVTVSS VL: DIQMTQSPSSVSASVGDRVTITCRASQGISNWLAWYQRKPGKAPKLLIYAASSLQSGVPSRFSGSGSGTDFTLTISSLQPEDFAAYYCQQASSFPWTFGQGTRVEIKR | – | – | – | – | 9000 | 0.00031 | 34000 | 526000 | 0.00065 | 1200
3 | Fc-GGGGSGGGGSRSCIDTIPKSRCTAFQCKHSMKYRLSFCRKTCGTC (Fc fusion, ends and bridges not checked; also: homodimer via Fc) [Bivalent Fc-L10-ShK[1-35] homodimer] | 67 | 4.47 | 15 | 5.76 | – | – | – | – | – | –
4 | aDNP 3B1 antibody (hybridoma) (antibody, human IgG2, kappa, V domains shown) VH: QVQLQESGPGLVKPSETLSLTCTVSGGSISSYYWSWIRQPPGKGLEWIGYIYYSGNTNSNPSLKSRVTISVDTSKNQFSLKLSSVTAADTAVYYCARTYYDSSGYYYRAFDIWGQGTMVTVSS VL: DIQMTQSPSSLSASEGDRVTITCRASQGIRNDLGWYQQKPGKAPKRLIYAASSLQSGVPLRFSGSGSGTEFTLTISSLQPEDFATYYCLQYNSYPWTFGQGTKVEIKR | – | – | – | – | 200 | 5.8e-05 | 370000 | 3000 | 0.00036 | 140000
5 | aDNP 3B1 antibody (recombinant, IgG2) (antibody, V domains shown) VH: QVQLQESGPGLVKPSETLSLTCTVSGGSISSYYWSWIRQPPGKGLEWIGYIYYSGNTNSNPSLKSRVTISVDTSKNQFSLKLSSVTAADTAVYYCARTYYDSSGYYYRAFDIWGQGTMVTVSS VL: DIQMTQSPSSLSASEGDRVTITCRASQGIRNDLGWYQQKPGKAPKRLIYAASSLQSGVPLRFSGSGSGTEFTLTISSLQPEDFATYYCLQYNSYPWTFGQGTKVEIKR | – | – | – | – | 700 | 0.00031 | 420000 | – | – | –
